The source of these data is publication PMC4364678, “Biosynthesis of the Diterpenoid Lycosantalonol via Nerylneryl Diphosphate in Solanum lycopersicum” (PLoS ONE, 2015).

Substrate in data set [1]: CC(C)=CCC/C(C)=C\CC/C(C)=C\COP(=O)(O)OP(=O)(O)O
Nature of the data set: purified protein. Format: biochemical, Solanum lycopersicum. To be noted: 10-80 μM zzFPP at 50 μM 14C-IPP.

Substrate in data set [2]: C=C(C)CCO[P@@](=O)(O)OP(=O)(O)O
Nature of the data set: purified protein. To be noted: 5-80 μM 14C-IPP at 150 μM zzFPP; labelled compound.

B1: CPT2 (Solanum lycopersicum) (protein)
chain: MSDRGLSKISCSLSLQTEKLRYDNDDNDDLELHEELIPKHIALIMDGNRRWAKAKGLEVYEGHKLIIPKLKEICDISSKLGIQVITAFAFSTENWKRSKEEVDFLMQLFEEFFNEFLRFGVRVSVIGCKSNLPMTLQKCIALTEETTKGNKGLHLVIALNYGGYYDILQATKSIVNKAMNGLLDVEDINKNLFEQELESKCPNPDLLIRTGGEQRVSNFLLWQLAYTEFYFTNTLFPDFGEKDLKKAILNFQQRHRRFGGHTY
notes: N-terminal putative transit peptide (51 residues, 153 nt) deleted; vector pEXP5-CT/TOPO; E. coli BL21 (DE3)
As for B1, in the data set “purified protein [1]”, the Michaelis constant (Km) (as a rule, the concentration of substrate that gives half-maximal velocity) is 22.9 ± 1.1 µM; the kcat (as a rule, the maximal rate divided by the concentration of active sites) was found to be 0.0026 ± 0.0001 s⁻¹; the kcat/Km (in general, the turnover number divided by the Michaelis constant) is 110 ± 10 M⁻¹ s⁻¹. In “purified protein [2]”, the Km is 3.8 ± 0.3 µM, the kcat came to 0.0026 s⁻¹ and the kcat/Km is 680 M⁻¹ s⁻¹.
